Experimental findings from patent publication EP1073463B1 are described below.

For assay [1], the target named is human CD3 on Jurkat cells (human) (UniProt P07766). The assay is described as follows: competition with 125I-UCHT1 on Jurkat cells, competitor at 100 nM.
Assay [2] addresses human FcR. The assay is described as follows: cell-based or functional assay.
The target in assay [3] is human CD3 on Jurkat cells (human) (UniProt P07766). The assay is described as follows: competition with 125I-UCHT1 on Jurkat cells, competitor at 1 nM.
For assay [4] the target is unchanged. The assay is described as follows: cell-based or functional assay.
For assay [5] the target is unchanged. The assay is described as follows: competition with 125I-UCHT1 on Jurkat cells, SP2/0 preparation at 100 nM.
For assay [6] the target is unchanged. Description: competition with 125I-UCHT1 on Jurkat cells, SP2/0 preparation at 1 nM.
For assay [7] the target is unchanged. The assay is described as follows: competition with 125I-UCHT1 on Jurkat cells, COS-7 preparation at 100 nM.
Assay [8] shares this target. The assay is described as follows: competition with 125I-UCHT1 on Jurkat cells, COS-7 preparation at 1 nM.

Chain of UniProt P07766 (P07766 23-207): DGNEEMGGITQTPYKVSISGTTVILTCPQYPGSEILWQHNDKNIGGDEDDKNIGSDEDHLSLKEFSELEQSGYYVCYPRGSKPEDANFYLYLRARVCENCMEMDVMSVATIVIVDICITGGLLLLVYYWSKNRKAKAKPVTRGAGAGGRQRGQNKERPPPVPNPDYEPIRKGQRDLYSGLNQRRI

Consider “UCHT1 monoclonal antibody (anti-human CD3)”, for which, in assay [1], the % of 125I-UCHT1 bound to cells stood at 0%. In assay [2], the T-cell proliferation of human PBMCs ([3H]thymidine incorporation), concentration at peak came to 100 ng/mL and the T-cell proliferation of human PBMCs ([3H]thymidine incorporation), lowest active concentration came out at 0.1 ng/mL. For the same substance, in assay [3], the % of 125I-UCHT1 bound to cells is 80%.
Consider “sFv-DT390, anti-CD3 single-chain immunotoxin with truncated diphtheria toxin (from UniProt P00588 33-422)”, for which, in assay [4], the IC50 (toxicity, inhibition of protein synthesis) is 0.048 nM; the Protein synthesis (% of controls), Jurkat cells, 1 x 10^-10 M, no serum (% of controls) turned out to be 18; the potency relative to UCHT1-CRM9 (fold of UCHT1-CRM9 potency) turned out to be 0.0625.
As to “scUCHT1, chimeric anti-human CD3 single chain antibody (UCHT1 VL-linker-VH fused to human IgM Fc µCH2 to µCH4) (from UniProt P01871 106-453) (scFv)”, the % of 125I-UCHT1 bound to cells was found to be 0% in assay [5], 80% in assay [6], 0% in assay [7] and 80% in assay [8].
